For assay [1], the target named is T1, cynomolgus SIRPβ1v3 (XP_005568593) extracellular domain + His-tag (cynomolgus monkey).
T1 construct: SPR analyte; also called Cyno SIRPβ1v3 XP_005568593; cynoSIRPβ1v3; not shown: His-tag
T1 chain: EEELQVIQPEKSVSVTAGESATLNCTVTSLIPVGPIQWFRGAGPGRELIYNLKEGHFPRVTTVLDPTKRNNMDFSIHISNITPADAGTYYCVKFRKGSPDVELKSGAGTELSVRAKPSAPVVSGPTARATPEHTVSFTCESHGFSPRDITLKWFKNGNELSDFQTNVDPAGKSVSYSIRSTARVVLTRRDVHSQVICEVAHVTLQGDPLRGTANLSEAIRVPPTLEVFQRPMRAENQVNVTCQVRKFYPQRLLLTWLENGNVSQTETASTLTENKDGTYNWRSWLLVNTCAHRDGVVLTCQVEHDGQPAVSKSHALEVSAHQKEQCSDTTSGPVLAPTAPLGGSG
The experiment in a line: SPR, antibody captured, ECD-His analyte. On the procedure: (§1) The binding affinity of anti-SIRPα antibodies to the various SIRPα analytes is determined by surface plasmon resonance (SPR) using a ProteOn XPR36 (Bio-Rad). The running buffer for this experiment and all dilutions (except where stated) are done in 1×HBS-EP+. […] The sensorchip is deactivated with 1M ethanolamine HCl for 420 sec at a flowrate of 10 μl/min.
(§2) The analyte is injected over the captured antibody for 300 sec at a flowrate of 30 μl/min. The dissociation is done for 600 sec. Two-fold serial dilutions of each SIRP protein (Extracellular Domain+His-Tag) are injected as analyte with the highest concentrations indicated in table 36 below.
(SPR reads the build-up and loss of mass on a sensor chip optically.)

Assay [2] addresses T2, cynomolgus SIRPα (EGM_02252) extracellular domain + His-tag (cynomolgus monkey).
T2 construct: SPR analyte; also called CySIRPα EGM_02252; cynoSIRPα; not shown: His-tag
T2 chain: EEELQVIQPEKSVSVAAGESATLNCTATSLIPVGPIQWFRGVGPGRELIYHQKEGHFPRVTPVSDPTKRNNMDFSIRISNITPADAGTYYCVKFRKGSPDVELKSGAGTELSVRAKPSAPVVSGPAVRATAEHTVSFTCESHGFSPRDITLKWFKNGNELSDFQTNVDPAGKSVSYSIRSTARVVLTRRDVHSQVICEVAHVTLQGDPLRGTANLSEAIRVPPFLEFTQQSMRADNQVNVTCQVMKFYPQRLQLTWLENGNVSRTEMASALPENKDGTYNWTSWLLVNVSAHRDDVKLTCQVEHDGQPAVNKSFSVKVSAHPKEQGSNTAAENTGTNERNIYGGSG
The experiment in a line: SPR. The protocol: as §1, §2

In assay [3] the target is T3, cynomolgus SIRPβ1 (XP_005568598) extracellular domain + His-tag (cynomolgus monkey).
T3 construct: SPR analyte; also called Cyno SIRPβ1 XP_005568598; cynoSIRPβ1; not shown: His-tag
T3 chain: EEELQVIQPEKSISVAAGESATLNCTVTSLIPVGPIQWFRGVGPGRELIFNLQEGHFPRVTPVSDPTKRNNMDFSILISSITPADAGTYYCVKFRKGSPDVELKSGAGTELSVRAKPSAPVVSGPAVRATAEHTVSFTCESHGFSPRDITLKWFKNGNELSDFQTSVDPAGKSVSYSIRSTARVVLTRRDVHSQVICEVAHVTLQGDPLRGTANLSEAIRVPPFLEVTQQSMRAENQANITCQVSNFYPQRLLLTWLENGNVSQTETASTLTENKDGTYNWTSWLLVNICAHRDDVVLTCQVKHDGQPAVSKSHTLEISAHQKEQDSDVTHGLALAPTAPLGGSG
The experiment in a line: SPR. On the procedure: as §1, §2

Assay [4] deals with T4, cynomolgus SIRPγ (XP_005568591) extracellular domain + His-tag (cynomolgus monkey, UniProt Q9P1W8 29-359 (human entry)).
T4 construct: SPR analyte; also called Cyno SIRPγ XP_005568591; cynoSIRPγ; not shown: His-tag
T4 chain: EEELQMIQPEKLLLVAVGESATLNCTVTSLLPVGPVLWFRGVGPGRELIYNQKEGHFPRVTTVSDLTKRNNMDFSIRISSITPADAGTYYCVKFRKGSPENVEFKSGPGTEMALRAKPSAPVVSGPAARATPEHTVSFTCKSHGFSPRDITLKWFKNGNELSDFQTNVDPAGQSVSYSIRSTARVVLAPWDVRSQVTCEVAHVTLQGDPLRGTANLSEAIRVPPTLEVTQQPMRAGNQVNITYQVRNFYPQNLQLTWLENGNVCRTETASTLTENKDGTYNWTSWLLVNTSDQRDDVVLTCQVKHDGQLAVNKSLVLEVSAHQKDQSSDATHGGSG
The experiment in a line: SPR. The protocol:
as §1, §2

Assay [5] has as its target T5, human SIRPαV1 extracellular domain + His-tag (NP_542970.1) (human, UniProt P78324 31-373).
T5 construct: also called hSIRPαV1; HuSIRPαV1
The experiment in a line: SPR, Ab captured, ECD-His analyte. On the procedure: as §1, §2

Assay [6] deals with T6, human SIRPαV2 extracellular domain + His-tag (CAA71403.1) (human, UniProt P78324 31-373).
T6 construct: also called hSIRPαV2; HuSIRPαV2
T6 sequence (P78324 other isoform, or with tags, fused parts or gaps): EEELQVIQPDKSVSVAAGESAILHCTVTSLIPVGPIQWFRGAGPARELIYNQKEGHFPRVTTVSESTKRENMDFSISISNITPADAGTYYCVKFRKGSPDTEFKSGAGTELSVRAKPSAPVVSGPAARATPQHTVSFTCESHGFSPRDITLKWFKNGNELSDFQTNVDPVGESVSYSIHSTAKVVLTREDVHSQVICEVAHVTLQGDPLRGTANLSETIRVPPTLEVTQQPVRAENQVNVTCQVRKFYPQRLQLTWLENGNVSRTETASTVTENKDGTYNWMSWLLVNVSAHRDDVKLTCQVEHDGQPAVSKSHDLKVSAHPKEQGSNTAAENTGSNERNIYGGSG
Put plainly: SPR, Ab captured, ECD-His analyte. The protocol:
as §1, §2

Assay [7] has as its target T7, human SIRPγ extracellular domain + His-tag (NP_061026.2) (human, UniProt Q9P1W8 29-360).
T7 construct: also called hSIRPγ; HuSIRPγ
The experiment in a line: SPR, Ab captured, ECD-His analyte. The protocol:
as §1, §2

In assay [8] the target is T8, Human SIRPαV1 (NP_542970.1), Extracellular Domain + His-Tag (human, UniProt P78324 31-373).
T8 construct: also called huSIRPαV1; hSIRPαV1; not shown: His-Tag
T8 sequence (P78324 other isoform, or with tags, fused parts or gaps): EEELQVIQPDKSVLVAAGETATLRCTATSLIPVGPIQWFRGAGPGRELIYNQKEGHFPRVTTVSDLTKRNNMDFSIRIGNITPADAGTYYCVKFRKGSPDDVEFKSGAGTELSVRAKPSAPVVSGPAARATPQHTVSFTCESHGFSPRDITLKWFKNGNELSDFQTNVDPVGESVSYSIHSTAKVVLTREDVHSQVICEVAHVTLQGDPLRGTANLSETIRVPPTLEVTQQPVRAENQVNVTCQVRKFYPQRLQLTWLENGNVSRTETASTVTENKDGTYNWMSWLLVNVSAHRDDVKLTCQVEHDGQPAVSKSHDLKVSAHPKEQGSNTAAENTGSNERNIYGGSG
The experiment in a line: SPR, antibody captured on Protein A/G, ECD-His analyte, 1:1 fit. On the procedure: (§3) The binding kinetics of anti-SIRPα antibodies to various SIRPα analytes are determined by surface plasmon resonance (SPR) using a Biacore 8K+(Cytiva). 1×HBS-EP+(Cytiva) is used as running buffer and for all the dilutions unless stated otherwise. The Series S CM5 sensorchip is activated with a 1:1 mixture of 0.1 M NHS (N-hydroxysuccinimide) and 0.4 M EDC (1-Ethyl-3-(3-dimethylaminopropyl) carbodiimide hydrochloride) for 420 seconds at a flow rate of 10 μl/min and immobilized with Protein A/G (Thermo Scientific, 10 μg/ml in 10 mM acetate pH 4.5) for 420 seconds at a flowrate of 10 μl/min resulting in approximately 3000 RU of Protein A/G on the surface. The sensorchip is then deactivated with 1 M ethanolamine HCl pH 8.5 for 420 seconds at a flowrate of 10 μl/min.
(§4) Antibodies (approximately 1 ug/ml) are captured on the Protein A/G surface for 60 seconds at a flowrate of 10 μl/min resulting in capture levels of approximately 240 RU. Dilutions of each SIRP protein (Extracellular Domain+His-Tag, with the concentrations as indicated) are injected as analytes over the captured antibody for 300 seconds of association at a flowrate of 30 μl/min, followed by a dissociation for 600 seconds.
(§5) The above procedures are used to measure binding properties of antibodies of the present disclosure. For each analyte used, the highest concentration was as indicated in Example 3 (see Table 36).

In assay [9] the target is T9, Human SIRPαV2 (CAA71403.1), Extracellular Domain + His-Tag (human, UniProt P78324 31-373).
T9 construct: also called huSIRPαV2; hSIRPαV2; not shown: His-Tag
The assay is described as above. On the procedure:
as §3, §4, §5

Positions count from the first letter of the chain named.

T7 sequence (Q9P1W8 29-360): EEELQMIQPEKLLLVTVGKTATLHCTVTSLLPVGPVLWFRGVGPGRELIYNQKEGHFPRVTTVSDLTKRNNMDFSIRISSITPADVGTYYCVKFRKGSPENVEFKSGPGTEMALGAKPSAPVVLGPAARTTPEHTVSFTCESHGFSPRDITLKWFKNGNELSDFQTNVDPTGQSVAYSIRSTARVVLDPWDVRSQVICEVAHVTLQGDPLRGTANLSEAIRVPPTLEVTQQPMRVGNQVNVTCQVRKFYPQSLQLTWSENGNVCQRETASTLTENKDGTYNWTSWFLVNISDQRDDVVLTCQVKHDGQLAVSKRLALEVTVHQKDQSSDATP

B1: Antibody E1 (antibody, human IgG1, kappa, L234A L235A, V domains shown)
VH: QVQLQESGPGLVRPSETLSLTCTVSGGSIRNYYWSWIRQPPGKGLEWIGFIYYNGRTFYNPSLKSRVTISLDMSINQFSLKMTSVTAADTAVYYCARVRAYSGIGLDGTDVWGQGTTVTVSS
VL: DIVMTQSPLSLPVTPGEPASISCKSSQSLLYSNGYAYLDWYLQRPGQSPQLLIYQGSNRASGVPDRFSGSGSGTDFTLKISRVEAEDVGVFYCMQALQTPLTFGGGTKVEIKR
In general, Kd refers to the constant that tells how readily two partners part at equilibrium. With B1, the equilibrium dissociation constant (Kd) in assay [1] worked out at 10.8 nM. Moreover, the binding result in [2], in assay [3] and in assay [4] was “no binding (tested: 1000 nM)” each time.

B2: Antibody E2 (antibody, human IgG1, kappa, L234A L235A, V domains shown)
VH: B1 VH
VL: B1 VL with Q55L, F91Y
On to B2, for which the Kd in assay [1] is 12.4 nM. For the same molecule, the binding result in assay [2], in assay [3] and in assay [4] was “no binding (tested: 1000 nM)” each time.

B3: Antibody E10 (antibody, human IgG1, kappa, L234A L235A, V domains shown)
VH: B1 VH with M73T, I75K
VL: B1 VL with Q55L, F91Y
Regarding B3, the Kd worked out at 1.23 nM in [5] and 1.2 nM in [6]. Further, in assay [7], the binding result was “no binding (tested: 1000 nM)”.

B4: Antibody E4 (antibody, human IgG1, kappa, L234A L235A, V domains shown)
VH: B1 VH with I75K
VL: B1 VL with Q55L, F91Y
Consider B4, for which the dissociation constant (Kd) in [5] was 0.988 nM; in [6] it was 0.824 nM. Also, the binding result in assay [7] is reported as “no binding (tested: 1000 nM)”.

B5: Antibody E3 (antibody, human IgG1, kappa, L234A L235A, V domains shown)
VH: B1 VH with I75K
VL: B1 VL
B5: the equilibrium dissociation constant (Kd) in assay [5] turned out to be 0.964 nM; in [6], 0.775 nM. For the same molecule, the binding result in [7] is “no binding (tested: 1000 nM)”.

B6: Antibody E11 (antibody, human IgG1, kappa, L234A L235A, V domains shown)
VH: B1 VH with I48M, Y53D, I75M
VL: B1 VL with Q55L, F91Y
As for B6, the Kd came to 1.41 nM in assay [5] and 0.568 nM in assay [6]. In assay [7], the binding result is recorded as “no binding (tested: 1000 nM)”.

B7: Antibody E6 (antibody, human IgG1, kappa, L234A L235A, V domains shown)
VH: B1 VH with M73K, I75K
VL: B1 VL with Q55L, F91Y
Take B7: the Kd in [1] stood at 23.9 nM. Moreover, the binding result in assay [2], in assay [3] and in assay [4] was “no binding (tested: 1000 nM)” in each case.

B8: Antibody E1 (antibody, human IgG1, kappa, L234A L235A, V domains shown)
VH: B1 VH
VL: B1 VL
Consider B8, for which the results for the dissociation constant (Kd) in assay [5] and in [6] were 0.723 nM and 0.63 nM, respectively. Also, the binding result in assay [7] is “no binding (tested: 1000 nM)”.

B9: Antibody E3 (antibody, human IgG1, kappa, L234A L235A, V domains shown)
VH: B1 VH with I75K
VL: B1 VL
For the molecule B9, the Kd in assay [1] was 10.7 nM. Further, the binding result in [2], in assay [3] and in assay [4] was “no binding (tested: 1000 nM)” each time.

B10: Antibody E16 (antibody, human IgG1, kappa, L234A L235A, V domains shown)
VH: B1 VH with M73T, I75K
VL: B1 VL with G34A, A36N, Q55L, F91Y
As to B10, the figures for the equilibrium dissociation constant (Kd) in [5] and in assay [6] were 2.15 nM and 1.93 nM, respectively. Further, the binding result in assay [7] is “no binding (tested: 1000 nM)”.

B11: Antibody E5 (antibody, human IgG1, kappa, L234A L235A, V domains shown)
VH: B1 VH with M73K, I75K
VL: B1 VL
In the case of B11, the Kd in assay [1] stood at 22.6 nM. Besides, the binding result in assay [2], in assay [3] and in assay [4] was “no binding (tested: 1000 nM)” throughout.

B12: Antibody E (antibody, human IgG1, kappa, L234A L235A)
heavy: not shown
light: DIVMTQSPLSLPVTPGEPASISCKSSQSLLYSNGYNYLDWYLQRPGQSPQLLIYLGSNRASGVPDRFSGSGSGTDFTLKISRVEAEDVGVFYCMQALQTPLTFGGGTKVEIKRTVAAPSVFIFPPSDEQLKSGTASVVCLLNNFYPREAKVQWKVDNALQSGNSQESVTEQDSKDSTYSLSSTLTLSKADYEKHKVYACEVTHQGLSSPVTKSFNRGEC
For the molecule B12, the results for the Kd in assay [8] and in assay [9] were 0.43 nM and 0.33 nM, respectively.
